The values below come from patent US20150329595A1 (NORTH CAROLINA STATE UNIVERSITY, published 2015).

To fix the notation:
B1: AD:TAL11-352 prey (activation domain fused to full-length TGMV AL1) (other, Tomato golden mosaic virus, UniProt P03567 1-352, looked up, not shown: large carriers)
chain: MPSHPKRFQINAKNYFLTYPQCSLSKEESLSQLQALNTPINKKFIKICRELHEDGQPHLHVLIQFEGKYCCQNQRFFDLVSPTRSAHFHPNIQRAKSSSDVKTYIDKDGDTLVWGEFQVDGRSARGGCQTSNDAAAEALNASSKEEALQIIREKIPEKYLFQFHNLNSNLDRIFDKTPEPWLPPFHVSSFTNVPDEMRQWAENYFGKSSAARPERPISIIIEGDSRTGKTMWARSLGPHNYLSGHLDLNSRVYSNKVEYNVIDDVTPQYLKLKHWKELIGAQRDWQTNCKYGKPVQIKGGIPSIVLCNPGEGASYKVFLDKEENTPLKNWTFHNAKFVFLNSPLYQSSTQSS
notes: positive prey control; also called pNSB970
B2: TAL11-130 bait (LexA DBD fused to the first 130 amino acids of TGMV AL1) (other, E. coli;Tomato golden mosaic virus, UniProt P0A7C2 1-202, looked up)
chain: MKALTARQQEVFDLIRDHISQTGMPPTRAEIAQRLGFRSPNAAEEHLKALARKGVIEIVSGASRGIRLLQEEEEGLPLVGRVAAGEPLLAQQHIEGHYQVDPSLFKPNADFLLRVSGMSMKDIGIMDGDLLAVHKTQDVRNGQVVVARIDDEVTVKRLKKQGNKVELLPENSEFKPIVVDLRQQSFTIEGLAVGVIRNGDWLMPSHPKRFQINAKNYFLTYPQCSLSKEESLSQLQALNTPINKKFIKICRELHEDGQPHLHVLIQFEGKYCCQNQRFFDLVSPTRSAHFHPNIQRAKSSSDVKTYIDKDGDTLVWGEFQVDGRSARGGCQT
notes: yeast two-hybrid bait; also called NT; Rep1-130

Assay [1] deals with T1, GUS bait (LexA DBD:beta-glucuronidase fusion) (E. coli, UniProt P0A7C2 1-202; P05804 1-603).
T1 construct: negative control bait; also called pNSB1120
In words: yeast two-hybrid growth.

Assay [2] addresses B1. Briefly: yeast two-hybrid growth.

With B1, the binding result in assay [1] is reported as “no binding”.
Consider B2, for which, in assay [2], the binding result was “no binding”.
